9 molecules from patent US20190359687A1 (Bayer, published 2019) can be followed below.

Experiment [1] has as its target T1, Cynomolgus monkey glycophorin A on Cynomolgus monkey red blood cells (Cynomolgus monkey).
T1 construct: whole, on cells; also called Cyno RBC; Cyno GPA
The experiment can be described thus: FACS, Cyno #3 RBC.

Experiment [2] addresses T2, dog red blood cells (dog).
T2 construct: also called dog RBC
The experiment can be described thus: FACS, Dog RBC.

Experiment [3] addresses T1, Cynomolgus monkey glycophorin A on …. The experiment can be described thus: FACS, Cyno #1 RBC.
Experiment [4] deals with T3, human glycophorin A in the red blood cell membrane (human, UniProt P02724 20-150).
T3 construct: whole, on cells; used for intact RBC, isolated RBC membranes and transfected cells; the assay field tells which; also called GPA; hGPA
T3 sequence (looked up): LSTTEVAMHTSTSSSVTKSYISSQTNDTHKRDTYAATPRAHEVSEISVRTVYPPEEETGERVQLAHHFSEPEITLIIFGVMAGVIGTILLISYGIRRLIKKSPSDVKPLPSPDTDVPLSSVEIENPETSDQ
Nature of the experiment: FACS, Human RBC.

Experiment [5] has as its target T4, Rhesus monkey glycophorin A on Rhesus monkey red blood cells (Rhesus monkey, UniProt A0A1D5Q349 20-150).
T4 construct: whole, on cells; also called Rhesus RBC; monkey GPA
T4 sequence: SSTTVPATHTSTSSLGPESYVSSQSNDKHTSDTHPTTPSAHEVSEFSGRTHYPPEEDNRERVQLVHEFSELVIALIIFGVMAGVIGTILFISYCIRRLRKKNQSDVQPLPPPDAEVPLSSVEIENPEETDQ
The experiment can be described thus: FACS, Rhesus RBC.

Experiment [6] deals with T1, Cynomolgus monkey glycophorin A on …. The experiment can be described thus: FACS, Cyno #2 RBC.
For experiment [7] the target is unchanged. Nature of the experiment: FACS, Cyno RBC.
Experimental: (§1) Hybridomas were generated from the spleen cells of these mice and these hybriomas were screened first by fluorescence activated cell sorting (FACS) against isolated human and monkey (Cynomolgus monkey and Rhesus monkey) red blood cells (RBC) and then by ELISA against purified human glycophorin A protein (GPA). Isolated RBC were prepared from whole blood from normal human, cynomolgus monkey, and beagle dog, were anticoagulant with sodium heparin (Bioreclamation). 2-3 mL of whole blood was loaded gently on the top of 3 mL Ficoll Plus (Sigma Aldrich) then centrifuged at 500 g for 20 min at room temperature (RT). The RBC pellets were washed 3 times with 10 mL of PBS, and centrifuge 400 g for 10 min at RT. RBC pellets were re-suspended in PBS at the same total volume as the original blood volume to achieve the same RBC cell density as in whole blood and stored at 4° C. Purified human glycophorin A protein was obtained from Sigma Aldrich and coated on ELISA plates at 2 ug/ml. Binding of antibodies to human GPA was detected using appropriate secondary antibodies using methods well known in the art.
For experiment [8], the target named is T5, purified human glycophorin A protein (Sigma, cat # G5017) (human, UniProt P02724 20-150).
T5 construct: mature; also called Sigma hGPA; Sigma GPA
T5 sequence (looked up): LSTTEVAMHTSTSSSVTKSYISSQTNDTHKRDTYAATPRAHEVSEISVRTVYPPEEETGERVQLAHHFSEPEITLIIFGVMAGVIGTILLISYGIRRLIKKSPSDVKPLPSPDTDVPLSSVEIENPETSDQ
The experiment can be described thus: ELISA, hGPA.
Experimental: as §1

Experiment [9] addresses T2, dog red blood cells. Nature of the experiment: FACS, dog RBC.
Experimental: as §1
The target in experiment [10] is T3, human glycophorin A in the red blood …. The experiment can be described thus: FACS, hu RBC.
Experimental: as §1

B1: 6C12 scFv-Fc (Fc fusion)
scFv: RVQLQQSGAELARPGASVKMSCKASGYTFTTYTIHWVKQKTGQGLEWIGYINPSSDYTRYNPKFKDKATLTTDKSSSTAYMKLNSLASDDSAVYYCQTGTRDYWGQGTTLTVSSGGGGSGGGGSGGGGSQIVLTQSPPIMSASPGEKVTMTCSAASSVSYIYWFQQKPGTSPKLWIYSTSTLPSGVPTRFSGSGSGTSYSLTISRMEAEDAATYYCHQRNSFPFTFGSGTKLEIRGGGGAGGGGCKPCICTVPEVSSVFIFPPKPKDVLTITLTPKVTCVVVDISKDDPEVQFSWFVDDVEVHTAQTQPREEQFNSTFRSVSELPIMHQDWLNGKEFKCRVNSAAFPAPIEKTISKTKGRPKAPQVYTIPPPKEQMAKDKVSLTCMITDFFPEDITVEWQWNGQPAENYKNTQPIMDTDGSYFVYSKLNVQKSNWEAGNTFTCSVLHEGLHNHHTEKSLSHSPGK
notes: scFv fused to a mouse Fc fragment; printed order VH-linker-VL-Fc
On to B1, for which the FACS signal in experiment [1] was determined as 602 Flourescent units; with dog red blood cells [2], 1 Flourescent units; in [3], 2 Flourescent units; in experiment [4] it was 2040 Flourescent units; in [5] it was 1450 Flourescent units; in experiment [6], 876 Flourescent units.

B2: 12C6A6/A5 (antibody, V domains shown)
VH: QVQLQQSGAELARPGASVKMSCKASGYTFTRYSMHWVKQRPGQGLEWIGYINPGTYSTNYNQKFKDRATLTADKSSSTAYMQLNSLTSEDSAVYYCQTGTRDYWGQGTTLTVSS
VL: QIVLTQSPPIMSASPGEKVTITCSAASSVSYIYWFQQKPGTSPKLWIYSTSSLPSGVPTRFSGSGSGTSYSLTISRMEAEDAATYYCHQRSSYPFTFGSGTKLEIR
notes: as m8
As for B2, the results for the FACS signal (in experiment [7]; in the experiment with dog red blood cells [9]; in experiment [10]) were 7 relative flourescence units, 0.96 relative flourescence units and 2840 relative flourescence units, respectively. Besides, the EC50 in experiment [8] worked out at 0.266 nM.

B3: 8F9E9/F11 (antibody, V domains shown)
VH: QVQLQQSGAELARPGASVKMSCKASGYTFTSYSIHWIKQRPGQSLEWIGYINPNSDYANYNQKFKDKATLTTDKSSTTAYMQLSSLTTDDSAVYYCQTGTRDYWGQGTTLTVSS
VL: HIVLTQSPAIMSASPGEKVTIICSARSSVSYMYWFQQKPGTSPKLWIYATSSLPSGVPARFSGSGSGTSYSLTISRMEAEDAATYYCHQRSSYPYTFGSGTKLEIK
notes: as m8
In the case of B3, the FACS signal was 284 relative flourescence units in experiment [7], 1.05 relative flourescence units with dog red blood cells [9] and 2860 relative flourescence units in [10]. In addition, the EC50 in experiment [8] worked out at 0.159 nM.

B4: 1E4A2/F8 (antibody, V domains shown)
VH: QVQLQQSGAELARPGASVKMSCKASGYTFTRYSMHWVKQRPGQGLEWIGYINPGTYYTNYNQKFKDRATLTADKSSSTAYMQLNSLTSEDSAVYYCQTGTRDYWGQGTTLTVSS
VL: QIVLTQSPPIMSASPGEKVTITCSAASSVSYIYWFQQKPGTSPKLWIYSTSSLPSGVPTRFSGSGSGTSYSLTISRMEAEDAATYYCHQRSSYPFTFGSGTKLEIR
notes: as m8
For B4, the FACS signal in experiment [7] is 272 relative flourescence units; with dog red blood cells [9], 1 relative flourescence units; in experiment [10], 2560 relative flourescence units. In addition, the EC50 in experiment [8] was found to be 0.221 nM.

B5: 10F1B10/F3 (antibody, V domains shown)
VH: QVQLLQSGAELARPGASVRISCKASGYTFTRYAMHWVKQRPGQGLEWIGYINPGTFSTNYNQKFKDRATLTADKSSSTAYMQLNSLTSEDSAVYYCQTGTRDYWGQGTTLTVSS
VL: QIVLTQSPPIMSASPGEKVTITCSAASSVSYIYWFQQKPGTSPKLWIYSTSSLPSGVPTRFSGSGSGTSYSLTISRMEAEDAATYYCHQRSSYPFTFGSGTKLEIR
notes: as m8
In the case of B5, the FACS signal in experiment [7] was 280 relative flourescence units; with dog red blood cells [9], 1.04 relative flourescence units; in [10] it was 2860 relative flourescence units. The EC50 in [8] stood at 0.192 nM.

B6: 1H5B4/H12 (antibody, V domains shown)
VH: QVQLQQSGAELARPGASVKMSCKASGYTFTSYSIHWIKQRPGQSLEWIGYINPNSDYANYNQKFKDKATLTTDKSSTTAYMQLSSLTTDDSAVYYCQTGTRDYWGQGTTLTVSS
VL: DIVMTQSPSSLSVSAGEKVTMSCKSSQSLLNSGNQKNYLAWYQQKPGQPPKLLIYGASTRESGVPDRFTGSGSGTDFTLTISSVQAEDLAVYYCQNDHSYPYTFGGGTKLEIK
notes: as m8
Take B6: the FACS signal in experiment [7] was 0.93 relative flourescence units; in experiment [10] it was 1.05 relative flourescence units. The same molecule came in with an EC50 in [8] of 0.403 nM.

B7: 13G7 scFv-Fc (Fc fusion)
scFv: RVQLQQSGAELARPGASVKMSCKASGYTFTNYAMHWVKQRPGQGLEWIGYINPKSDNTNYNQKFKDKATLTTDKSSATAYMQLSSLTSDDSAVYYCQTGTRDYWGQGTTLTVSSGGGGSGGGGSGGGGSHIVLTQSPAIMSASPGEKVTIFCSASSSITYVYWFQQKPGTSPKLWIYSTSSLPSGVPARFSGSGSGTSYSLTISRMEAEDAATYYCHQRNSYPFTFGSGTKLEIKGGGGAGGGGCKPCICTVPEVSSVFIFPPKPKDVLTITLTPKVTCVVVDISKDDPEVQFSWFVDDVEVHTAQTQPREEQFNSTFRSVSELPIMHQDWLNGKEFKCRVNSAAFPAPIEKTISKTKGRPKAPQVYTIPPPKEQMAKDKVSLTCMITDFFPEDITVEWQWNGQPAENYKNTQPIMDTDGSYFVYSKLNVQKSNWEAGNTFTCSVLHEGLHNHHTEKSLSHSPGK
notes: as m18
In the case of B7, the FACS signal turned out to be 632 Flourescent units in experiment [1]; 1 Flourescent units with dog red blood cells [2]; 2 Flourescent units in experiment [3]; 2760 Flourescent units in experiment [4]; 1860 Flourescent units in experiment [5]; 981 Flourescent units in experiment [6].

B8: 12C6 scFv-Fc (Fc fusion)
scFv: QVQLQQSGAELARPGASVKMSCKASGYTFTRYSMHWVKQRPGQGLEWIGYINPGTYSTNYNQKFKDRATLTADKSSSTAYMQLNSLTSEDSAVYYCQTGTRDYWGQGTTLTVSSGGGGSGGGGSGGGGSQIVLTQSPPIMSASPGEKVTITCSAASSVSYIYWFQQKPGTSPKLWIYSTSSLPSGVPTRFSGSGSGTSYSLTISRMEAEDAATYYCHQRSSYPFTFGSGTKLEIRGGGGAGGGGCKPCICTVPEVSSVFIFPPKPKDVLTITLTPKVTCVVVDISKDDPEVQFSWFVDDVEVHTAQTQPREEQFNSTFRSVSELPIMHQDWLNGKEFKCRVNSAAFPAPIEKTISKTKGRPKAPQVYTIPPPKEQMAKDKVSLTCMITDFFPEDITVEWQWNGQPAENYKNTQPIMDTDGSYFVYSKLNVQKSNWEAGNTFTCSVLHEGLHNHHTEKSLSHSPGK
notes: as m18
As to B8, the FACS signal in experiment [1] was 580 Flourescent units; with dog red blood cells [2] it was 1 Flourescent units; in experiment [3], 2 Flourescent units; in experiment [4], 2900 Flourescent units; in [5], 1860 Flourescent units; in experiment [6], 956 Flourescent units.

B9: 1E4 scFv-Fc (Fc fusion)
scFv: QVQLQQSGAELARPGASVKMSCKASGYTFTRYSMHWVKQRPGQGLEWIGYINPGTYYTNYNQKFKDRATLTADKSSSTAYMQLNSLTSEDSAVYYCQTGTRDYWGQGTTLTVSSGGGGSGGGGSGGGGSQIVLTQSPPIMSASPGEKVTITCSAASSVSYIYWFQQKPGTSPKLWIYSTSSLPSGVPTRFSGSGSGTSYSLTISRMEAEDAATYYCHQRSSYPFTFGSGTKLEIRGGGGAGGGGCKPCICTVPEVSSVFIFPPKPKDVLTITLTPKVTCVVVDISKDDPEVQFSWFVDDVEVHTAQTQPREEQFNSTFRSVSELPIMHQDWLNGKEFKCRVNSAAFPAPIEKTISKTKGRPKAPQVYTIPPPKEQMAKDKVSLTCMITDFFPEDITVEWQWNGQPAENYKNTQPIMDTDGSYFVYSKLNVQKSNWEAGNTFTCSVLHEGLHNHHTEKSLSHSPGK
notes: as m18
As to B9, the FACS signal in [1] was found to be 487 Flourescent units; in the experiment with dog red blood cells [2], 1 Flourescent units; in experiment [3], 1 Flourescent units; in experiment [4], 1720 Flourescent units; in experiment [6], 453 Flourescent units.
